Target: dGvpC (Ana GvpC with SG-… at the C-terminus, encoded in the acoustic sensor gene for ClpXP) (Anabaena flos-aquae) (UniProt P09413)
Assay: cell-based or functional assay

Chain of dGvpC (Ana GvpC with SG-… at the C-terminus, encoded in the acoustic sensor gene for ClpXP) (Anabaena flos-aquae) (P09413 1-193, tags or fused parts left off): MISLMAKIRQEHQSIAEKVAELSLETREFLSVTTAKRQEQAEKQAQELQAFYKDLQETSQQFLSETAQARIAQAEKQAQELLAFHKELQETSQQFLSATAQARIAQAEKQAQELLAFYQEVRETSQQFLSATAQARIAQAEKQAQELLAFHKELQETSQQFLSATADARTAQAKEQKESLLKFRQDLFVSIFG

Substance: ClpXP of E. coli Nissle 1917 (native, or ClpX and ClpP cloned from the Nissle genome under the pBAD promoter) (from UniProt P0A6H1 2-424; P0A6G7 15-207) (enzyme)
- hydrostatic collapse pressure midpoint of intact WT Nissle cells, ASGClpXP against ARGWT: 160 kPa
- hydrostatic collapse pressure midpoint of ΔClpXP Nissle cells with against without ClpXP induction: 160 kPa
- nonlinear ultrasound contrast of live WT Nissle cells, ASGClpXP against ARGWT: 13 dB
- nonlinear ultrasound contrast of ΔClpXP Nissle cells with against without ClpXP induction: 6.7 dB

From US20210060185A1
